{
  "source": "IntAct's records for PubMed 16902405",
  "key": {"rab6a_human RAB6A [1]": {"target": "rab6a_human RAB6A (UniProt P20340)", "sequence (P20340 whole entry, looked up)": "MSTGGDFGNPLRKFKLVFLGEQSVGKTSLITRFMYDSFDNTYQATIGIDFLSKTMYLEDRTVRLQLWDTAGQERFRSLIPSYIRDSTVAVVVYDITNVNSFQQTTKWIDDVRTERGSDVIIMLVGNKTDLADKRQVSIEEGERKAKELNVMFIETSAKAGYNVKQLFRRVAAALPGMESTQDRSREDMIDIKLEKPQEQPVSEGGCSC"}, "rab5a_human RAB5A [2]": {"target": "rab5a_human RAB5A (UniProt P20339)", "sequence (P20339 whole entry)": "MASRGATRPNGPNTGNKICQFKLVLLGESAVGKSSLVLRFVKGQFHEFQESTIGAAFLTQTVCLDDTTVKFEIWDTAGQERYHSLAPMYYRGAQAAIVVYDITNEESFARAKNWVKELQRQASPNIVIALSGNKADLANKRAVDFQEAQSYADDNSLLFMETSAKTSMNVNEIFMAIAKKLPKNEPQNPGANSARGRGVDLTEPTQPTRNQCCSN"}, "rab1a_human RAB1A [3]": {"target": "rab1a_human RAB1A (UniProt P62820)", "sequence (P62820 whole entry)": "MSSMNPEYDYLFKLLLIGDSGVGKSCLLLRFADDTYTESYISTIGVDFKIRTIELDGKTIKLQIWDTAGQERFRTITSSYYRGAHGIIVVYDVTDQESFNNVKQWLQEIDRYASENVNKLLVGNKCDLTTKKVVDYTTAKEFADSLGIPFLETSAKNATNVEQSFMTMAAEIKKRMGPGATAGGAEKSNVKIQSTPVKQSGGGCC"}, "rab6a_human RAB6A [4]": {"target": "rab6a_human RAB6A (UniProt P20340)", "remark": "listed apart in the source"}, "clh1_human CLTC [5]": {"target": "clh1_human CLTC (UniProt Q00610)", "sequence (Q00610 whole entry)": "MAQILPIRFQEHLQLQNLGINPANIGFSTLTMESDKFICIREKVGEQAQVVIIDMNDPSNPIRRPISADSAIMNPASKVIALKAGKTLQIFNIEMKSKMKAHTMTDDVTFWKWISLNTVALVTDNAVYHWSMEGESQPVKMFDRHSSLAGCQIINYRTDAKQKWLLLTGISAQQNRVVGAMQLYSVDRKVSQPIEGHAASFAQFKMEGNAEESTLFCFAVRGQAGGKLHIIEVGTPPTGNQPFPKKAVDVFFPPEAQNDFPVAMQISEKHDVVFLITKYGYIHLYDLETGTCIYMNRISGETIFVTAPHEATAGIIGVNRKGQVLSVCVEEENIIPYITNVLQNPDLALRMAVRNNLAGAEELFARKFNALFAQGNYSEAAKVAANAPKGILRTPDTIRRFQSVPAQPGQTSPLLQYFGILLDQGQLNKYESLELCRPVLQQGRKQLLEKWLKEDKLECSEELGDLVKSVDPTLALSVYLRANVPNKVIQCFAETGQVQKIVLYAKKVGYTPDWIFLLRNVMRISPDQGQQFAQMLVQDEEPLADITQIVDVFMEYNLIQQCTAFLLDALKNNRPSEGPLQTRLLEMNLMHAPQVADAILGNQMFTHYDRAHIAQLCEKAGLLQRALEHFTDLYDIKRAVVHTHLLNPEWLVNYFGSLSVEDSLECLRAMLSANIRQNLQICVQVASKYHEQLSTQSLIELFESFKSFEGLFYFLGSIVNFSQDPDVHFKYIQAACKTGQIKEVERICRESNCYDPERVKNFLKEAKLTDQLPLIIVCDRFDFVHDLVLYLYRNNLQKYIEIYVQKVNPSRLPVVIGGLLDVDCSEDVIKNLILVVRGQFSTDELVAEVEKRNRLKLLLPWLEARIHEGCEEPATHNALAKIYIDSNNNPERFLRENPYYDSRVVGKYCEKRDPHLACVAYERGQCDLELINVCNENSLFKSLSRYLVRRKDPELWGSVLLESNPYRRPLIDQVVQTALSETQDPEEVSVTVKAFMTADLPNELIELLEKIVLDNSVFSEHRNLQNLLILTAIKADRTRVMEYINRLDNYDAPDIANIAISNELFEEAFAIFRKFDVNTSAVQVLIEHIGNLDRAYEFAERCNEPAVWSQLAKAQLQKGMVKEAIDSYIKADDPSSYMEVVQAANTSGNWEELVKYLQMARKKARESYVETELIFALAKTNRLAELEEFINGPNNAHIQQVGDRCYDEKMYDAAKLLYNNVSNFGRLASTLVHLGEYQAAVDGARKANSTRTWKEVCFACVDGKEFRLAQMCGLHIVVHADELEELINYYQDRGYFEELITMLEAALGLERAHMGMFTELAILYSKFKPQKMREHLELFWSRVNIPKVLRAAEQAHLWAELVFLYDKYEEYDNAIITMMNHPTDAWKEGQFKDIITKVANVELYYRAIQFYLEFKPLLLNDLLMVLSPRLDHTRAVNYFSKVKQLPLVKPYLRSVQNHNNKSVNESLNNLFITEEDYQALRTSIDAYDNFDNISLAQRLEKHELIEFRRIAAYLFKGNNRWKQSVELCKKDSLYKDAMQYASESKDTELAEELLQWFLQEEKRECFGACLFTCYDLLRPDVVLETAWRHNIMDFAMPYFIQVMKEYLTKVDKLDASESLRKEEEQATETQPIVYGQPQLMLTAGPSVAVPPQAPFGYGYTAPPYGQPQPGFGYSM"}, "rab6a_human RAB6A [6]": {"target": "rab6a_human RAB6A (UniProt P20340)", "remark": "listed apart in the source"}, "clh1_human CLTC [7]": {"target": "clh1_human CLTC (UniProt Q00610)", "remark": "listed apart in the source"}, "rab5a_human RAB5A [8]": {"target": "rab5a_human RAB5A (UniProt P20339)", "remark": "listed apart in the source"}, "clh1_human CLTC [9]": {"target": "clh1_human CLTC (UniProt Q00610)", "remark": "listed apart in the source"}, "rab6a_human RAB6A [10]": {"target": "rab6a_human RAB6A (UniProt P20340)", "remark": "listed apart in the source"}, "rab1a_human RAB1A [11]": {"target": "rab1a_human RAB1A (UniProt P62820)", "remark": "listed apart in the source"}, "rab1a_human RAB1A [12]": {"target": "rab1a_human RAB1A (UniProt P62820)", "remark": "listed apart in the source"}, "rab5a_human RAB5A [13]": {"target": "rab5a_human RAB5A (UniProt P20339)", "remark": "listed apart in the source"}, "rab6a_human RAB6A [14]": {"target": "rab6a_human RAB6A (UniProt P20340)", "remark": "listed apart in the source"}, "rab5a_human RAB5A [15]": {"target": "rab5a_human RAB5A (UniProt P20339)", "remark": "listed apart in the source"}, "rab6a_human RAB6A [16]": {"target": "rab6a_human RAB6A (UniProt P20340)", "remark": "listed apart in the source"}, "rab1a_human RAB1A [17]": {"target": "rab1a_human RAB1A (UniProt P62820)", "remark": "listed apart in the source"}},
  "data": [
    {"substance": "Inositol polyphosphate 5-phosphatase OCRL (Homo sapiens), Q01968 S568G", "values": [
      {"measurement": "effect of a mutation on the interaction", "setting": "rab6a_human RAB6A [1]", "result": "decreasing interaction"},
      {"measurement": "effect of a mutation on the interaction", "setting": "rab5a_human RAB5A [2]", "result": "increasing interaction"},
      {"measurement": "effect of a mutation on the interaction", "setting": "rab1a_human RAB1A [3]", "result": "increasing interaction"}
    ]},
    {"substance": "Inositol polyphosphate 5-phosphatase OCRL (Homo sapiens), Q01968 P526H", "values": [
      {"measurement": "effect of a mutation on the interaction", "setting": "rab6a_human RAB6A [4]", "result": "increasing interaction"},
      {"measurement": "effect of a mutation on the interaction", "setting": "clh1_human CLTC [5]", "result": "increasing interaction"}
    ]},
    {"substance": "Inositol polyphosphate 5-phosphatase OCRL (Homo sapiens), Q01968 N606K", "values": [
      {"measurement": "effect of a mutation on the interaction", "setting": "rab6a_human RAB6A [6]", "result": "increasing interaction"},
      {"measurement": "effect of a mutation on the interaction", "setting": "clh1_human CLTC [7]", "result": "increasing interaction"}
    ]},
    {"substance": "Inositol polyphosphate 5-phosphatase OCRL (Homo sapiens), Q01968 D555E", "values": [
      {"measurement": "effect of a mutation on the interaction", "setting": "rab5a_human RAB5A [8]", "result": "decreasing interaction"},
      {"measurement": "effect of a mutation on the interaction", "setting": "clh1_human CLTC [9]", "result": "decreasing interaction"},
      {"measurement": "effect of a mutation on the interaction", "setting": "rab6a_human RAB6A [10]", "result": "decreasing interaction"},
      {"measurement": "effect of a mutation on the interaction", "setting": "rab1a_human RAB1A [11]", "result": "disrupting interaction"}
    ]},
    {"substance": "Inositol polyphosphate 5-phosphatase OCRL (Homo sapiens), Q01968 S564P", "values": [
      {"measurement": "effect of a mutation on the interaction", "setting": "rab1a_human RAB1A [12]", "result": "disrupting interaction"},
      {"measurement": "effect of a mutation on the interaction", "setting": "rab5a_human RAB5A [13]", "result": "decreasing interaction"},
      {"measurement": "effect of a mutation on the interaction", "setting": "rab6a_human RAB6A [14]", "result": "disrupting interaction"}
    ]},
    {"substance": "Inositol polyphosphate 5-phosphatase OCRL (Homo sapiens), Q01968 G664D", "values": [
      {"measurement": "effect of a mutation on the interaction", "setting": "rab5a_human RAB5A [15]", "result": "decreasing interaction"},
      {"measurement": "effect of a mutation on the interaction", "setting": "rab6a_human RAB6A [16]", "result": "disrupting interaction"},
      {"measurement": "effect of a mutation on the interaction", "setting": "rab1a_human RAB1A [17]", "result": "disrupting interaction"}
    ]}
  ]
}
